For this series, the target named is human alpha-thrombin (Homo sapiens, UniProt P00734;P00734 328-363;364-622). As to the kind of experiment: SPR imaging (k-1/k1); 50 nM thrombin; 20 mM Tris-HCl pH 7.4, 140 mM NaCl, 5 mM KCl, 1 mM CaCl2, 1 mM MgCl2; SPR at 25 C; EMSA in the same selection buffer, 14% native PAGE in 1X Tris-glycine at 4 C. A general note: In EMSA bound probe runs differently from free probe, usually more slowly.

The term Kd denotes the equilibrium constant for the complex coming apart. The low end stands for tighter binding, the high end for weaker binding.

Consider ACACGCGCATGCGGTTGGTGTGGTTTGGCATGCGCCACA (structured_DNA, 3'-thiol for SPR) [Motif Ia rank 3 hairpin], for which the Kd came to 170 nM.
The same measure for ACACGCGCATGCGGTTGGTGCGGTTGGGCATGCGCCACA (structured_DNA, 3'-thiol for SPR) [Motif Ia rank 25 hairpin]: 2200 nM; for ACACGCGCATGCGGTTGGTTTGGTTGGGCATGCGCCACA (structured_DNA, 3'-thiol for SPR) [Motif Ia rank 9 hairpin]: 650 nM.
